In patent publication US20250352581A1 (NEOMICS PHARMACEUTIALS, published 2025):

Target: PD-L1 expressed on target cells (K562-PDL1, A375-PDL1, A549-HLA-A2/PDL1) (UniProt Q9NZQ7 19-290, limits assumed)
Test: cell-based or functional assay

PD-L1 expressed on target cells (K562-PDL1, A375-PDL1, A549-HLA-A2/PDL1), sequence (Q9NZQ7 19-290 limits assumed): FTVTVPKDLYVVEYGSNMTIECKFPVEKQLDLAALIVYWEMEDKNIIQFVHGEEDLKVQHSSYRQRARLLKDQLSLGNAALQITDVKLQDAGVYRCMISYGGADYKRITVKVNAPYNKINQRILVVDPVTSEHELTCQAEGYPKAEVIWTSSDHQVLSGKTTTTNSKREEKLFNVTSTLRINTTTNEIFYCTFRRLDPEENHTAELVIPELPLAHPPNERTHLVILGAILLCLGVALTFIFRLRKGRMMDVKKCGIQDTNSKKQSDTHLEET

B1: PD1-28-TNR9(41BBt) PD-1 chimeric co-stimulatory receptor (PD-1 extracellular domain_CD28 stalk, transmembrane and signaling domain_truncated 4-1BB signaling … (receptor)
chain: FLDSPDRPWNPPTFSPALLVVTEGDNATFTCSFSNTSESFVLNWYRMSPSNQTDKLAAFPEDRSQPGQDCRFRVTQLPNGRDFHMSVVRARRNDSGTYLCGAISLAPKAQIKESLRAELRVTERRAEVPTAHPSPSPRPALFPGPSKPFWVLVVVGGVLACYSLLVTVAFIIFWVRSKRSRLLHSDYMNMTPRRPGPTRKHYQPYAPPRDFAAYRSQPFMRPVQTTQEEDGCSCRFPEEEEGGCEL
- T cell expansion (GSK-794 and 2007 TCR T cells on A375-PDL1 cells): ≥ 60 fold
